Test results as given in the supplement of paper PMC9876800.

Each substance was assayed on peptide library, one residue held at a place counted from the S/T acceptor (assay: relative phosphorylation of the sub-library (ratio to the mean residue at this position); human; higher = residue favoured). Conditions: D fixed; at -4.
Procedure, shortened: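 In 384-well plates, purified recombinant kinases (human or orthologue constructs) were incubated for 90 min under kinase-specific conditions with 50 μM biotinylated degenerate peptide sub-libraries and 50 μM ATP spiked with γ-32P-ATP. Each sub-library fixed a single residue at one position around a central Ser/Thr. Relative sub-library phosphorylation, measured by phosphorimaging and densitometry of streptavidin membrane spots, is given as a ratio to the mean residue at that position.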

Sequence of NEK6, construct: Full length (Q9HC98 whole entry, looked up): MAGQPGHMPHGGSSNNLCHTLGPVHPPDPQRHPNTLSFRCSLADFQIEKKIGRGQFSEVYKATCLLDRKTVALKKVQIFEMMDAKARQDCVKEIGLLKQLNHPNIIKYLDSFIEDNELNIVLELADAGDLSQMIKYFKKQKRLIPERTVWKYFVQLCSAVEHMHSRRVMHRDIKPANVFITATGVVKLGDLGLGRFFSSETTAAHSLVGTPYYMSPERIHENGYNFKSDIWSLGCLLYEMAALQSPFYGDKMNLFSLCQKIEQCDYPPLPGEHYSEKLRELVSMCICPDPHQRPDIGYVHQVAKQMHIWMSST
Sequence of TNIK, construct: aa1-314 (Q9UKE5 1-314, looked up): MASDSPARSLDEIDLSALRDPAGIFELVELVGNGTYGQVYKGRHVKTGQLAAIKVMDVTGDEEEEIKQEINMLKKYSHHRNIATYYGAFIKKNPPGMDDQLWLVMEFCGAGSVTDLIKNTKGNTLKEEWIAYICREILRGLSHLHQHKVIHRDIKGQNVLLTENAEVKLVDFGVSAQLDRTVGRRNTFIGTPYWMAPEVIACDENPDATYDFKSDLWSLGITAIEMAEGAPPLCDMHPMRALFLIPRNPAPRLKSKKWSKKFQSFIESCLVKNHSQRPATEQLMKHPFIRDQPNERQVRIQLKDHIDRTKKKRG
Sequence of SLK, construct: Full length (Q9H2G2 whole entry, looked up): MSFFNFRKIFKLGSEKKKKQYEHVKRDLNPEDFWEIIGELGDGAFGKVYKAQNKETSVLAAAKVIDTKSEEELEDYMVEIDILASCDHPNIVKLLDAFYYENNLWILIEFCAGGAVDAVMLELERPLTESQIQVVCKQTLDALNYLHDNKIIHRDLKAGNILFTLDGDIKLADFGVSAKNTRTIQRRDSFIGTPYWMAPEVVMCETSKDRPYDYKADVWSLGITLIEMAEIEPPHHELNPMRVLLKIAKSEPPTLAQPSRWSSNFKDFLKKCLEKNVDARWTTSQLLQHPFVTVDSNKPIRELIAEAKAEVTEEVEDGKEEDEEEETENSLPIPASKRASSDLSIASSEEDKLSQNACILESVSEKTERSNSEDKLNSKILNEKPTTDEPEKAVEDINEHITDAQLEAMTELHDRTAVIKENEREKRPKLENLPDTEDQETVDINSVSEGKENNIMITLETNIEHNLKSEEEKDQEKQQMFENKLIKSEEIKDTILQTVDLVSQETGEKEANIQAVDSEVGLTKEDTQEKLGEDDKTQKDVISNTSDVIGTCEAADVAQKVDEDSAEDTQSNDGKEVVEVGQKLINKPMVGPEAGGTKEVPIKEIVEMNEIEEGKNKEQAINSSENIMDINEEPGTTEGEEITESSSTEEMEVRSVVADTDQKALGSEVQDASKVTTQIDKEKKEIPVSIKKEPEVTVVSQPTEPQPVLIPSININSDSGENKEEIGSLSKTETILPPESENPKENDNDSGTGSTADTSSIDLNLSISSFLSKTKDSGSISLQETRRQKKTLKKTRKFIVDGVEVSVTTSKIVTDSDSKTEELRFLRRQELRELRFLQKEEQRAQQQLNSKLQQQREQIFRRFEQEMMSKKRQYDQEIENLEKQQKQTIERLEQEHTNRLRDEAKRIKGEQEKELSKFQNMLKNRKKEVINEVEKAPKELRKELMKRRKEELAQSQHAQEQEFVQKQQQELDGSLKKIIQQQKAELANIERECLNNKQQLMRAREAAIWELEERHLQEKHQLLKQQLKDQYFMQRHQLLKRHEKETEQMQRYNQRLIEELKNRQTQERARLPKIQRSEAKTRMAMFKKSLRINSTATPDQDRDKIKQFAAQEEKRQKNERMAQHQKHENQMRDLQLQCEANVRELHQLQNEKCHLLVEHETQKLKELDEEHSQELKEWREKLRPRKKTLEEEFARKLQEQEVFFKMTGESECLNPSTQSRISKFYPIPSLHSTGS
Sequence of SIK3, construct: aa1-307 (Q9Y2K2 1-307, looked up): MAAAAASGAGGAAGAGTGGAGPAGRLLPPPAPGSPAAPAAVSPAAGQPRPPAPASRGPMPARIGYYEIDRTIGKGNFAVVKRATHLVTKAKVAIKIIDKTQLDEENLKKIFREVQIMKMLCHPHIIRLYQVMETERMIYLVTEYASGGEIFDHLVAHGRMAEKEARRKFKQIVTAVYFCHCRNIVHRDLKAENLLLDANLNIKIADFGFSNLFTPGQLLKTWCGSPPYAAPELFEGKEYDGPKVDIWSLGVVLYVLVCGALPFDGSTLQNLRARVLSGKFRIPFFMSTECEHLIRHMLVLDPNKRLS
Sequence of MAP4K5, construct: Full length (Q9Y4K4 whole entry, looked up): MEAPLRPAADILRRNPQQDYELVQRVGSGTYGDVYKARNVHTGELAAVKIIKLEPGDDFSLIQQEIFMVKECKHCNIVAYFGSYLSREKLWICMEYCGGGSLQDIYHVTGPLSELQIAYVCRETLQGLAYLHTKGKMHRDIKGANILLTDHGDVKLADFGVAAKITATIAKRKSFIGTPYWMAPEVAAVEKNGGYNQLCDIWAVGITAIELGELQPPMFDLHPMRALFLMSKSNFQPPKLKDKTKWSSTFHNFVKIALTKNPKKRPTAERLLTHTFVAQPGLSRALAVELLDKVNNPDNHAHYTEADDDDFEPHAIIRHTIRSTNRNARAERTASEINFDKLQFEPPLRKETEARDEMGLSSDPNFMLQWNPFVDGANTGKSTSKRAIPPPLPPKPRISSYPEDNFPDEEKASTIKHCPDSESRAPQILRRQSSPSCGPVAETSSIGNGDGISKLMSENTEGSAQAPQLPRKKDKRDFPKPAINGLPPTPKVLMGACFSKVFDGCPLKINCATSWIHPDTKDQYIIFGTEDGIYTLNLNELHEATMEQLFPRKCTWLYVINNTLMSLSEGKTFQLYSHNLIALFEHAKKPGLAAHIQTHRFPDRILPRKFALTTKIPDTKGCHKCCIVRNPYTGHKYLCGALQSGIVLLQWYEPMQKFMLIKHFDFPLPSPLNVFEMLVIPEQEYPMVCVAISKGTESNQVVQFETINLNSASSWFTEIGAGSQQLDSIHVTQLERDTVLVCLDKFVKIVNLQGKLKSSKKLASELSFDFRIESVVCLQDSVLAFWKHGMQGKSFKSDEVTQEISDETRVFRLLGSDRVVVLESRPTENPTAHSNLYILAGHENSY
Sequence of CDK10, construct: Full length (Q15131 whole entry, looked up): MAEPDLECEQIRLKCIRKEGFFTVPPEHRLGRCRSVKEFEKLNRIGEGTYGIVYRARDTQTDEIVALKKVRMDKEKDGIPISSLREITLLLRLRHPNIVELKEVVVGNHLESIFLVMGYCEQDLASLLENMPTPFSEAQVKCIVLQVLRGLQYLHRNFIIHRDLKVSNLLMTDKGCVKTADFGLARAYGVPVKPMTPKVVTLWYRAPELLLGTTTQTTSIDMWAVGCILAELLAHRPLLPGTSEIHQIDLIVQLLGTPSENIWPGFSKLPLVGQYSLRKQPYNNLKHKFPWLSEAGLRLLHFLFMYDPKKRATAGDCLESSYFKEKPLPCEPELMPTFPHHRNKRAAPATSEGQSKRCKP
Sequence of IKBKE, construct: Full length (Q14164 whole entry, looked up): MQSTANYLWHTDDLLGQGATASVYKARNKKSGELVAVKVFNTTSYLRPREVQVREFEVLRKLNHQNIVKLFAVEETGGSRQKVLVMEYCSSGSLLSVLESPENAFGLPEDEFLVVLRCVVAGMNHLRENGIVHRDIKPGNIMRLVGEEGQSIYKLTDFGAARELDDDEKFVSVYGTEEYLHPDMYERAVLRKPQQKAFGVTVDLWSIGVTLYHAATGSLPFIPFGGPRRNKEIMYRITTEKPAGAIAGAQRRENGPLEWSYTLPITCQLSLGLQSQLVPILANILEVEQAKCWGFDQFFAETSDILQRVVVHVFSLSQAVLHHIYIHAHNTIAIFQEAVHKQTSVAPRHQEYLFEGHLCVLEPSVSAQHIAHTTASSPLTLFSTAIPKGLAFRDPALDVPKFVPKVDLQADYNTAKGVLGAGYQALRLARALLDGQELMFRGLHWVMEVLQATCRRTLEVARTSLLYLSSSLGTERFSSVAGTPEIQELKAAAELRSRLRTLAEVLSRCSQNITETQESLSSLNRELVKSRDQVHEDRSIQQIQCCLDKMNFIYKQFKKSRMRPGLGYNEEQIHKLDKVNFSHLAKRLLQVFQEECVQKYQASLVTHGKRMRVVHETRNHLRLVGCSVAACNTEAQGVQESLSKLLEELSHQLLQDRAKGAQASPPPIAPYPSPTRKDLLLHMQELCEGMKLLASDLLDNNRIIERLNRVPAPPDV

| Substance | relative phosphorylation |
| --- | --- |
| PKN2, construct: aa501-984 (from UniProt Q16513) | 0.59 |
| IKBKE, construct: Full length (from UniProt Q14164) | 1.35 |
| MAP4K5, construct: Full length (from UniProt Q9Y4K4) | 0.756 |
| NEK6, construct: Full length (from UniProt Q9HC98) | 2.11 |
| SIK3, construct: aa1-307 (from UniProt Q9Y2K2) | 0.773 |
| TNIK, construct: aa1-314 (from UniProt Q9UKE5) | 0.968 |
| SLK, construct: Full length (from UniProt Q9H2G2) | 1.09 |
| CDK10, construct: Full length (from UniProt Q15131) | 0.355 |

Same assay, conditions: D fixed; at -5

| Substance | relative phosphorylation |
| --- | --- |
| PKN2, construct: aa501-984 (from UniProt Q16513) | 0.503 |
| IKBKE, construct: Full length (from UniProt Q14164) | 1.34 |
| MAP4K5, construct: Full length (from UniProt Q9Y4K4) | 0.739 |
| NEK6, construct: Full length (from UniProt Q9HC98) | 2.07 |
| SIK3, construct: aa1-307 (from UniProt Q9Y2K2) | 0.8 |
| TNIK, construct: aa1-314 (from UniProt Q9UKE5) | 0.923 |
| SLK, construct: Full length (from UniProt Q9H2G2) | 1.57 |
| CDK10, construct: Full length (from UniProt Q15131) | 0.357 |

Same assay, conditions: E fixed; at +1

| Substance | relative phosphorylation |
| --- | --- |
| PKN2, construct: aa501-984 (from UniProt Q16513) | 0.293 |
| IKBKE, construct: Full length (from UniProt Q14164) | 0.22 |
| MAP4K5, construct: Full length (from UniProt Q9Y4K4) | 0.173 |
| NEK6, construct: Full length (from UniProt Q9HC98) | 0.344 |
| SIK3, construct: aa1-307 (from UniProt Q9Y2K2) | 0.747 |
| TNIK, construct: aa1-314 (from UniProt Q9UKE5) | 0.249 |
| SLK, construct: Full length (from UniProt Q9H2G2) | 0.198 |
| CDK10, construct: Full length (from UniProt Q15131) | 0.115 |

Same assay, conditions: E fixed; at +2

| Substance | relative phosphorylation |
| --- | --- |
| PKN2, construct: aa501-984 (from UniProt Q16513) | 0.32 |
| IKBKE, construct: Full length (from UniProt Q14164) | 0.933 |
| MAP4K5, construct: Full length (from UniProt Q9Y4K4) | 0.581 |
| NEK6, construct: Full length (from UniProt Q9HC98) | 0.325 |
| SIK3, construct: aa1-307 (from UniProt Q9Y2K2) | 0.583 |
| TNIK, construct: aa1-314 (from UniProt Q9UKE5) | 0.591 |
| SLK, construct: Full length (from UniProt Q9H2G2) | 0.358 |
| CDK10, construct: Full length (from UniProt Q15131) | 0.297 |

Same assay, conditions: E fixed; at +3

| Substance | relative phosphorylation |
| --- | --- |
| PKN2, construct: aa501-984 (from UniProt Q16513) | 0.545 |
| IKBKE, construct: Full length (from UniProt Q14164) | 0.928 |
| MAP4K5, construct: Full length (from UniProt Q9Y4K4) | 0.319 |
| NEK6, construct: Full length (from UniProt Q9HC98) | 0.564 |
| SIK3, construct: aa1-307 (from UniProt Q9Y2K2) | 0.643 |
| TNIK, construct: aa1-314 (from UniProt Q9UKE5) | 0.389 |
| SLK, construct: Full length (from UniProt Q9H2G2) | 0.515 |
| CDK10, construct: Full length (from UniProt Q15131) | 0.26 |

Same assay, conditions: E fixed; at +4

| Substance | relative phosphorylation |
| --- | --- |
| PKN2, construct: aa501-984 (from UniProt Q16513) | 0.609 |
| IKBKE, construct: Full length (from UniProt Q14164) | 1.01 |
| MAP4K5, construct: Full length (from UniProt Q9Y4K4) | 0.67 |
